Laboratory results taken from article PMC10290082, “Tau protein binds to the P53 E3 ubiquitin ligase MDM2” (Scientific Reports, 2023).

Molecular target: T1, recombinant human MDM2 (human, UniProt Q00987 1-491)
T1 construct: E3 ubiquitin-protein ligase MDM2, human; source: bought: Biotechne (E3-204-050)
Experiment: pull-down; purified recombinant proteins (15 ng), alone or together, on beads coupled to the pDIQ peptide; uncoupled beads as control; western blot
Conditions: both partners purified

T1 sequence (Q00987 whole entry): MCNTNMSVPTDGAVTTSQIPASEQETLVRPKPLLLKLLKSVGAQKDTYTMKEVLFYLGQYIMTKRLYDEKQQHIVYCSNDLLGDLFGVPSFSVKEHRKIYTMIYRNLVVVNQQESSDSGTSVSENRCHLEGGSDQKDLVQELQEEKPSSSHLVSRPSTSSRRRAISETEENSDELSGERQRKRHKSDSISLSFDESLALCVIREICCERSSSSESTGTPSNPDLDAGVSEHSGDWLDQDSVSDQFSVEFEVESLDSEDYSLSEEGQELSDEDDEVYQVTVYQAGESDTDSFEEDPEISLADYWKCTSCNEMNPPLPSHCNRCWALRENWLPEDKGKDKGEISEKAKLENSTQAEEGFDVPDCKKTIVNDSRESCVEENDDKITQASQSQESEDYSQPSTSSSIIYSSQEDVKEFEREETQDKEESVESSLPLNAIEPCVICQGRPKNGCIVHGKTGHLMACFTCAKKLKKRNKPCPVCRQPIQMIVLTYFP

B1: pDIQ peptide (peptide)
peptide: ETFEHWWSQLLSGGC
Q: Does B1 bind?
A: Result: binds
